Data on three substances can be found in patent publication US7727950B2, “Methods and reagents for assaying protein kinase activity” (The University of Dundee, priority 2002, dated 2010).

The test system of data set [1] is CC(C)C[C@H](NC(=O)[C@@H](NC(=O)[C@H](CCCNC(=N)N)NC(=O)[C@H](C)NC(=O)[C@@H](N)CCCNC(=N)N)[C@@H](C)O)C(=O)N[C@@H](CO)C(=O)N[C@@H](Cc1ccccc1)C(=O)N[C@@H](C)C(=O)N[C@@H](CCC(=O)O)C(=O)N1CCC[C@H]1C(=O)NCC(=O)O. As to the kind of experiment: purified protein, by the assay type. The settings on record: other: CaMKII; Standard Substrate = MHRQETVDCLK; 30.0 °C.
Description: All protein kinase assays were linear with respect to time. […] The assays with the three generic peptides introduced in this example were carried out in the same buffers as follow. Unlabelled or biotinylated substrate peptides were assayed for 10 min at 30° C. in 50 μl incubations, in the presence of 0.1 mM [y^32P]ATP or unlabelled ATP. Radioactive assays were terminated by spotting 40 μl of each incubation on to phosphocellulose paper followed by immersion in 75 mM phosphoric acid. All papers were subsequently washed a further three times in phosphoric acid, once in acetone, then dried and counted for radioactivity. Non-radioactive assays were terminated by the addition of EDTA to a final concentration of 20 mM, then diluted with an equal volume of phosphate-buffered saline (PBS), containing 0.1% Tween 20 and the biotinylated peptides captured by incubation for 60 min on pre-washed, 96 well Streptavidin coated plates (Equilon A/S, Vedbaek, Denmark). […] The plates were then washed six times (five min per wash) in PBS, 0.1% Tween 20 and binding of the phospho-specific antibody detected by incubating the plates with peroxidase-conjugated anti-sheep antibodies (Pierce). […] Signals were quantitated on LAS-1000IR software (FujiFilm).
The subject of data set [2] is CC(C)C[C@H](NC(=O)[C@H](CCCNC(=N)N)NC(=O)[C@H](CCCNC(=N)N)NC(=O)[C@@H](N)CCCNC(=N)N)C(=O)N[C@@H](CO)C(=O)N[C@@H](Cc1ccccc1)C(=O)N[C@@H](C)C(=O)N[C@@H](CCC(=O)O)C(=O)N1CCC[C@H]1C(=O)NCC(=O)O. Put plainly: purified protein, by the assay type. The settings on record: other: PKA; Standard Substrate = LRRASLG; 30.0 °C.
The subject of data set [3] is T1, CC(C)C[C@H](NC(=O)[C@H](CCCCN)NC(=O)[C@@H](N)CCCCN)C(=O)N[C@@H](CC(N)=O)C(=O)N[C@@H](CCCNC(=N)N)C(=O)N[C@H](C(=O)N[C@@H](CC(C)C)C(=O)N[C@@H](CO)C(=O)N[C@@H](Cc1ccccc1)C(=O)N[C@@H](C)C(=O)N[C@@H](CCC(=O)O)C(=O)N1CCC[C@H]1C(=O)NCC(=O)O)[C@@H](C)O.
T1 construct: made in house; host or cells: Sf21 insect cells
As to the kind of experiment: Kinetic parameters for peptide phosphorylation, radioactive filter-binding assay. The format is biochemical, human. The settings on record: other: PKBα; Standard Substrate = GRPRTSSFAEG; 30.0 °C. From the text: Apart from the AMP-activated protein kinase (AMPK, a gift from Drs S. Hawley and D. G. Hardie), cGMP-dependent protein kinase (PKG, a generous gift from Drs Susan Lohmann and Ulrich Walter, University of Wurzburg, Germany) and the catalytic subunit of cyclic AMP-dependent protein kinase (PKA, a gift from Dr C. Smythe), which were isolated from rat liver, bovine lung and bovine heart, respectively, all other protein kinases were expressed as either GST-fusion or His-tagged proteins (by a person, a person, Dr A. Paterson or a person, in this Division). The expressed proteins all corresponded to the human sequences apart from the rat Rho-dependent protein kinase (ROCK-II) and rat mitogen-activated protein kinase (MAPK) activated kinase-1a (MAPKAP-K1a, also called RSK). […]
All protein kinase assays were linear with respect to time. […] All papers were subsequently washed a further three times in phosphoric acid, once in acetone, then dried and counted for radioactivity. […] The plates were then washed six times (five min per wash) in PBS, 0.1% Tween 20 and binding of the phospho-specific antibody detected by incubating the plates with peroxidase-conjugated anti-sheep antibodies (Pierce). […] Signals were quantitated on LAS-1000IR software (FujiFilm). […]

With CaMKII (Homo sapiens), the Km in data set [1] stood at 300 µM.
Regarding PKA (Bos taurus), the Km in data set [2] stood at 30 µM.
On to PKBα (Homo sapiens), for which the Km in data set [3] stood at 2 µM.

For orientation: Km means the substrate concentration at which the rate is half of its maximum.
